In the supplement of paper PMC6757056:
± gives the standard deviation of the averaged measurements.

B1: library; a variant is named by its letters at N, in order (parent)
chain: GCUGUCACCGGUGCUUGGUACGUUAUAUUCAGCCGGUCUGAUGAGUCUNNNNNNAGACGAAACAGC

Columns and labels:
(6R,S)-folinic acid [1] = variants of: B1; test: normalized RNA/DNA level without ligand (relative to sTRSVctl = 100) (log10 (% of sTRSVctl)); HEK293T overexpressing SLC46A1; higher = less ribozyme self-cleavage, higher mRNA level; conditions: without (6R,S)-folinic acid; ligand present: no
In short: (§1)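 Library plasmids carrying ribozyme switches linked to mCherry, or to eGFP in some ligand experiments, were transfected into HEK293T at 4 µg per 6-well well, with any ligand added 1 h earlier. Seventy-two hours on, total RNA was extracted with EDTA and reverse-transcribed, amplified, barcoded and sequenced. RNA level was RNA over DNA reads normalized to a spiked-in non-cleaving sequence or to the top sequences, then scaled and log-transformed. The top set was 25 sequences, the transform was ×100 and log10, and sequences needed ≥100 DNA reads.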

(6R,S)-folinic acid [2] = variants of: B1; test: normalized RNA/DNA level with ligand (relative to sTRSVctl = 100) (log10 (% of sTRSVctl)); HEK293T overexpressing SLC46A1; ligand concentration (+) RNA-Seq: 6 mM; higher = less ribozyme self-cleavage, higher mRNA level; conditions: with (6R,S)-folinic acid; ligand present: yes
In short: as §1

Row | Variant | normalized RNA/DNA level without ligand (log10) ((6R,S)-folinic acid [1]) | normalized RNA/DNA level with ligand (log10) ((6R,S)-folinic acid [2])
1 | AUUCGU | 1.99 ± 0.0072 | 1.97 ± 0.057
2 | AUUCGC | 2.039 ± 0.0092 | 2.06 ± 0.041
3 | AUUCGG | 1.952 ± 0.017 | 2.04 ± 0.026
4 | AUUACC | 2.019 ± 0.0035 | 2 ± 0.025
5 | AUUACA | 1.992 ± 0.017 | 2.01 ± 0.059
6 | AUUACG | 1.941 ± 0.005 | 2.026 ± 0.011
7 | AUUACU | 2.042 ± 0.012 | 2.04 ± 0.031
8 | GUUCCU | 2.03 ± 0.0037 | 2.04 ± 0.045
9 | GUUCCC | 2.075 ± 0.018 | 2.052 ± 0.017
10 | GUUCCG | 2.032 ± 0.011 | 2.02 ± 0.04
11 | GUGUUG | 1.9429 ± 0.0015 | 2.014 ± 0.015
12 | GUGUUU | 2.03 ± 0.027 | 2.05 ± 0.036
13 | GUGUUA | 1.988 ± 0.015 | 2.01 ± 0.025
14 | GUGUUC | 2.01 ± 0.031 | 2.012 ± 0.0073
15 | UUUGCC | 2.001 ± 0.004 | 2.04 ± 0.037
16 | GUUCAG | 1.963 ± 0.0042 | 2 ± 0.043
17 | GUUCAU | 2.019 ± 0.0083 | 2.02 ± 0.034
18 | CUUCGU | 2.053 ± 0.0097 | 2.04 ± 0.048
19 | CUUCGA | 2.053 ± 0.0024 | 2.06 ± 0.038
20 | CUUCGG | 2.063 ± 0.0068 | 2.036 ± 0.0089

Row | Variant | normalized RNA/DNA level without ligand (log10) ((6R,S)-folinic acid [1]) | normalized RNA/DNA level with ligand (log10) ((6R,S)-folinic acid [2])
21 | CUUCGC | 2.067 ± 0.018 | 2.072 ± 0.018
22 | UUUUGC | 1.959 ± 0.0097 | 1.93 ± 0.055
23 | UUUUGU | 1.957 ± 0.014 | 2 ± 0.046
24 | CUUAUA | 1.961 ± 0.019 | 2 ± 0.029
25 | CUUAUG | 2.013 ± 0.005 | 2.0211 ± 0.00067
26 | CUUAUC | 2.089 ± 0.009 | 2.08 ± 0.033
27 | CUUACC | 2.022 ± 0.0014 | 1.995 ± 0.016
28 | CUUACG | 2.007 ± 0.0022 | 2 ± 0.037
29 | CUUACA | 2.004 ± 0.01 | 2 ± 0.022
30 | CUUACU | 2 ± 0.023 | 2.02 ± 0.047
31 | AUUAUC | 2.062 ± 0.01 | 2.03 ± 0.022
32 | AUUAUG | 1.94 ± 0.021 | 2.02 ± 0.033
33 | AUUAUA | 1.9581 ± 0.0013 | 1.97 ± 0.025
34 | UUUGAC | 2.012 ± 0.0044 | 2.011 ± 0.018
35 | CUUGUC | 2.091 ± 0.018 | 2.06 ± 0.027
36 | CUUGUU | 2.02 ± 0.03 | 1.995 ± 0.018
37 | CUUGUA | 2.027 ± 0.018 | 2.036 ± 0.013
38 | GUUAUC | 2.027 ± 0.012 | 2.044 ± 0.0079
39 | GUUAUU | 2.016 ± 0.0067 | 2.007 ± 0.02
40 | GUUACU | 2.03 ± 0.027 | 2.03 ± 0.037

Row | Variant | normalized RNA/DNA level without ligand (log10) ((6R,S)-folinic acid [1]) | normalized RNA/DNA level with ligand (log10) ((6R,S)-folinic acid [2])
41 | GUUACG | 1.988 ± 0.012 | 2.02 ± 0.034
42 | GUUACA | 2.009 ± 0.012 | 2.01 ± 0.053
43 | AUUGGU | 1.884 ± 0.011 | 1.99 ± 0.056
44 | AUUGGG | 1.7701 ± 0.00019 | 1.99 ± 0.033
45 | AUUGGC | 2.011 ± 0.012 | 2.05 ± 0.012
46 | CUUCCA | 2.023 ± 0.014 | 2.02 ± 0.037
47 | CUUCCC | 2.01 ± 0.03 | 2.002 ± 0.007
48 | CUUCCG | 2.05 ± 0.029 | 2.06 ± 0.046
49 | CUUCCU | 1.996 ± 0.0085 | 2.02 ± 0.059
50 | UUUACG | 1.859 ± 0.0091 | 1.98 ± 0.03
51 | UUUACA | 2.0168 ± 0.00066 | 2.029 ± 0.0067
52 | CUUUUA | 1.988 ± 0.012 | 2 ± 0.052
53 | CUUUUG | 2.0401 ± 0.001 | 2.04 ± 0.029
54 | UUUAUA | 1.993 ± 0.015 | 2 ± 0.03
55 | UUUAUC | 2.103 ± 0.0028 | 2.065 ± 0.016
56 | UUUAUU | 1.988 ± 0.0096 | 2.03 ± 0.033
57 | CUUGCU | 2.051 ± 0.0067 | 2.04 ± 0.012
58 | CUUGCA | 2.019 ± 0.0087 | 2.03 ± 0.043
59 | CUUGCG | 2.03 ± 0.017 | 2.01 ± 0.029
